Experiments:
IL-9R [1] = molecular target: T1, IL-9R (Mus musculus, UniProt Q01114); test: IL-9 binding to resting and activated T helper clones; set-up: endogenous in cells; settings: 7.5×10^-10 M labelled rIL-9
T1 sequence (Q01114 38-468): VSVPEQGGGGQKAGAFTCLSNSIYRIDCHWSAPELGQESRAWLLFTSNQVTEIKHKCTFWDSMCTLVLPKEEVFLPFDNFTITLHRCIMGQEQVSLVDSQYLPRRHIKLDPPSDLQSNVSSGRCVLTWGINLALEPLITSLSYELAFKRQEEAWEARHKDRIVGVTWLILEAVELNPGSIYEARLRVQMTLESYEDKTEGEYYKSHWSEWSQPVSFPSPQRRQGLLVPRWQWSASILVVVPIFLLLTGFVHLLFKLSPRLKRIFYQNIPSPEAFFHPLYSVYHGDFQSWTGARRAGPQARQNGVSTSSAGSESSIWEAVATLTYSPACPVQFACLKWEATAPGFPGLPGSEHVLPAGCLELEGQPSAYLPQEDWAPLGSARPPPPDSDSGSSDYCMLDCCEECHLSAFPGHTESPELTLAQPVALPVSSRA
Experimental: The correlation between IL-9 and proliferation of T4 cell lines in response to IL-9 was studied. Resting T cells were collected from two week cultures, and 2×10^6 cells were stimulated by antigen (KLH, 25 ug/ml) in the presence of 70×10^6 & spleen cells for four days. Blasts were isolated by centrifugation and IL-9 binding was determined following incubation with 7.5×10^-10 M labelled rIL-9. Resting cells which had not been restimulated were treated in parallel. Maximal IL-9 induced proliferation was measured by incubation of resting cells in microliter plates (50,000/well), either with or without saturating concentrations of IL-9. Radioactive thymidine incorporation, which was the manner in which proliferation was determined, was measured on day 3.

IL-9R [2] = molecular target: T1, IL-9R; test: Competitive binding of radiolabelled rIL-9 to TS1 cells (specificity of IL-9 binding); set-up: a number of different cell types were tested for the presence of the IL-9R molecule; endogenous in cells; settings: competitor 6.1 × 10^-10 M; labelled rIL-9 6.1×10^-10 M, 10^6 TS1 cells, 3 h 4° C.; no competitor 4083 ± 16
Experimental: In order to test whether the radioactive IL-9 would bind to TS1 cells which are mouse cells, which are IL-9 dependent, a competitive assay was carried out. Specifically, rIL-9 was incubated with TS1 cells in 140 ul of DMEM containing BSA (10 mg/ml) and Na3 N (10 mM). In order to determine the level of binding, a 100 fold excess of "cold", i.e., non-radiolabelledIL-9, was also mixed with the material. The rIL-9 was admixed at 6.1×10^-10 M, for three hours at 4° C., with 10^6 TS1 cells. Bound material was separated from free ligand via centrifugation over a layer of dibutyl and dioctyl phthalate (15:I). In addition, the experiments were repeated using various interleukins, interferon-γ ("INF-γ"), tumor necrosis factor ("TNF"), and granulocyte, macrophage colony stimulating factor ("GM-CSF"). All experiments were carried out in triplicate.

IL-9: lymphokine interleukin-9, T-cell derived growth factor; in Tables II and III the 125I-labelled recombinant form is used
IL-9 binding Activated Cells (IL-9R [1]; T helper clone TUC2.15, antigen (KLH) stimulated blasts): 532 mol/cell
IL-9 binding Resting Cells (IL-9R [1]; T helper clone TUC2.15): 159 mol/cell
IL-9 binding Resting Cells (IL-9R [1]; T helper clone TUC7.11): < 10 mol/cell
IL-9 binding Activated Cells (IL-9R [1]; T helper clone TUC7.33, antigen (KLH) stimulated blasts): < 10 mol/cell
IL-9 binding Resting Cells (IL-9R [1]; T helper clone TUC7.33): 21 mol/cell
IL-9 binding Activated Cells (IL-9R [1]; T helper clone TUC7.51, antigen (KLH) stimulated blasts): 514 mol/cell
IL-9 binding Resting Cells (IL-9R [1]; T helper clone TUC7.51): 94 mol/cell
Bound Radioactivity (IL-9R [2]): 1181 ± 123 cpm
